Experimental findings from the DeepSol protein solubility set are described below.

The data set is described as follows: soluble on expression in E. coli; label from the status in PepcDB or PDB records.
Turning to “MDKIHAMQLFIRVADLESFSRAAETLALPKGSVSRQIQALESHLGVRLLHRTTRRVQLTQDGMVYYERAKDLLSNLDELDGMFQHDPASISGRLRVDMPVGFAKKMVIPHLPTFLQQYPGIELELSSSDRQVDVIREGFDCVVRVGALKDSGLIARPLGKLTQINCASPDYLARFGYPQSLEDLADHALIHYASTLGVRPPGFEVMIDGAVRWVKTGGILTVNSTETYQAACIAGLGIIQVPRTGVREALRAGDLIEILPQYRAEPLPVSLIYPHRRNLSRRVNLFMEWLGGLMKAYVD”, the “soluble on expression in E. coli” value is on record as “not soluble”.

As to “MGHHHHHHSHREMVLQFLAFSRVAQDCRGTSWPKTVYFTFQFYRFPPATTPRLQLVQLDEAGQPSSGALTHILVPVSRDGTFDAGSPGFQLRYMVGPGFLKPGERRCFARYLAVQTLQIDVWDGDSLLLIGSAAVQMKETSHIFSVSQ”, the “soluble on expression in E. coli” value is “not soluble”.

“MNSLLRLSHLAGPAHYRALHSSSSIWSKVAISKFEPKSYLPYEKLSQTVKIVKDRLKRPLTLSEKILYGHLDQPKTQDIERGVSYLRLRPDRVAMQDATAQMAMLQFISSGLPKTAVPSTIHCDHLIEAQKGGAQDLARAKDLNKEVFNFLATAGSKYGVGFWKPGSGIIHQIILENYAFPGLLLIGTDSHTPNGGGLGGLCIGVGGADAVDVMADIPWELKCPKVIGIKLTGKLNGWTSAKDVILKVADILTVKGGTGAIVEYFGPGVDSISATGMGTICNMGAEIGATTSVFPYNESMYKYLEATGRKEIAEEARKYKDLLTADDGANYDQIIEINLDTLTPHVNGPFTPDLASSIDKLGENAKKNGWPLDVKVSLIGSCTNSSYEDMTRAASIAKQALDKGLKAKTIFTITPGSEQVRATIERDGLSKIFADFGGMVLANACGPCIGQWDRQDVKKGEKNTIVTSYNRNFTGRNDANPATHGFVTSPDITTAMAISGRLDFNPLTDELTAADGSKFKLQAPTGLDLPPKGYDPGEDTFQAPSGSGQVDVSPSSDRLQLLSPFDKWDGKDLEDMKILIKVTGKCTTDHISAAGPWLKYRGHLDNISNNLFLTAINADNGEMNKVKNQVTGEYGAVPATARKYKADGVRWVAIGDENYGEGSSREHAALEPRHLGGRAIIVKSFARIHETNLKKQGMLPLTFANPADYDKIDPSDNVSIVGLSSFAPGKPLTAIFKKTNGSKVEVTLNHTFNEQQIEWFKAGSALNRMKEVFAKSK”: the “soluble on expression in E. coli” value is “soluble”.

Regarding “MIVILDNGGQYVHRIHRSLKYIGVSSKIVPNTTPLEEIESNKEVKGIILSGGPDIEKAKNCIDIALNAKLPILGICLGHQLIALAYGGEVGRAEAEEYALTKVYVDKENDLFKNVPREFNAWASHKDEVKKVPEGFEILAHSDICQVEAMKHKTKPIYGVQFHPEVAHTEYGNEILKNFCKVCGYKFE”, the “soluble on expression in E. coli” value was “soluble”.

As for “MKRLIICNGNKLTVCTQAISSGGIVEKYTPIFSLTKESDNELTLELSGVARGYYIIPSELTSSQARAAHLITLLTRAEESQTTDMHKILNSFVSGKITSGSMFNFENDGSFKREPEEAYNLINKI”, the “soluble on expression in E. coli” value is given as “not soluble”.

With “MITIKKQEIVKLEDVLHLYQAVGWTNYTHQTEMLEQALSHSLVIYLALDGDAVVGLIRLVGDGFSSVFVQDLIVLPSYQRQGIGSSLMKEALGNFKEAYQVQLATEETEKNVGFYRSMGFEILSTYDCTGMIWINREK”, the “soluble on expression in E. coli” value was “soluble”.

On to “TLQIQFKKYELPPLPYKIDALEPYISKDIIDVHYNGHHKGYVNGANSLLERLEKVVKGDLQTGQYDIQGIIRGLTFNINGHKLHALYWENMAPSGKGGGKPGGALADLINKQYGSFDRFKQVFTETANSLPGTGWAVLYYDTESGNLQIMTFENHFQNHIAEIPIILILDEFEHAYYLQYKNKRADYVNAWWNVVNWDAAEKKLQKYLTK”, for which the “soluble on expression in E. coli” value is recorded as “soluble”.

As for “MECFRSRIITIYLKRLKYSPLLWRNAKRGTRSSYMWLYVSICCGDFQFWKLSGTPSSPTCKTHSCGFIFWTNTHLLGDQLRYTIMDTIGMYLIIKQRLRNIHKNDPRLFQYVFENGHPLPYNR”, the “soluble on expression in E. coli” value is given as “not soluble”.

Take “MGSDKIHHHHHHMKLGVNLCFAVKRWLEPDRLAGLVRDDLGLEYVQYTYDLTDPWWPDIERDRRAIAYAKAFRKAGLTIESTFGGLASYTYNHFLAPTLELQSLGYQHLKRAIDMTAAMEVPATGMPFGSYSAADALNPARREEIYAIARDMWIELAAYAKRQGLSMLYVEPVPLATEFPSSAADAARLMADLDGRTEIPVRLLVDWGHALFEPLFGPEADMDHWMDLCQPWIAAYHIQQTDGQLDRHWSFTQPGVVTPQRLQDFWDKYALTDQTFFAEILYPFEARDEDVLADMIASVKALKAASPAA”: the “soluble on expression in E. coli” value is listed as “not soluble”.

For the sequence “SLDVCRGMLCGFGAVCEPSVEDPGRASCVCKKNVCPAMVAPVCGSDASTYSNECELQRAQCNQQRRIRLLRQGPCGSRDPCANVTCSFGSTCVPSADGQTASCLCPTTCFGAPDGTVCGSDGVDYPSECQLLRHACANQEHIFKKFDGPCDPCQGSMSDLNHICRVNPRTRHPEMLLRPENCPAQHTPICGDDGVTYENDCVMSRIGAARGLLLQKVRSGQCQT”, the “soluble on expression in E. coli” value is given as “soluble”.

With “MGSDKIHHHHHHAQEERNQGIIWSYLHGWEYGIKAGFSIGGTSPLPLPEEIRKIDSYAPGGLAISIEGNATKWFDTKWGMTVGVRLENKNMTTEATVKNYGMKIINTNGGELQGLWTGGVKTKVKNSYLTIPVVANYKVSKRWKVSAGPYVSYLIERNFSGHVYEGHLRTPDQTGSRVDFTGESIATYDFSDNLRKFQWGLQLGGEWRAFKHLNVYADLTWGLNDIFKKDFDTISFAMYPIYLNIGFGYAF”, the “soluble on expression in E. coli” value is on record as “not soluble”.

Take “MSQQIQMKSVIDVKFPTHLFSPLATSSPKLTRMRAPIRDQSWSSCSDDSSGNLTSQAITGVDDSHIEATKLENESSTSSCSMHTALEFVNSSIFERVRSYSEVITREELQSAIFERKLTETDCSKEEAEMYSIIVTERILWTAGRTWTGTIQVKTKDLLNDYVRYACEDWYMKHTGQLCAVELNHIGKWDEIFDSNAIAIYCYETGIPTIIVDRIFSSNLVRRSTGNYLDTKEVTWLIFAMIGTDENQSIEYWFRVLDVQSTGILQLDDLRMFYDAITKFLVNNNVQSLPFENAIAQFRDILGTDKWNLQSFKKNSQLAFRVINGFVCALRFLEQEICEKTNTERQDDEEFGMVRTRWQRLIDHKFDDYYAQSSTSSSGSFNINNEPINPV”: the “soluble on expression in E. coli” value is “not soluble”.

For the sequence “MSLALLNVDKLSVHFGDESAPFRAVDRISYSVKQGEVVGIVGESGSGKSVSSLAIMGLIDYPGRVMAEKLEFNGQDLQRISEKERRNLVGAEVAMIFQDPMTSLNPCYTVGFQIMEAIKVHQGGNKSTRRQRAIDLLNQVGIPDPASRLDVYPHQLSGGMSQRVMIAMAIACRPKLLIADEPTTALDVTIQAQIIELLLELQQKENMALVLITHDLALVAEAAHKIIVMYAGQVVETGDAHAIFHAPRHPYTQALLRALPEFAQDKERLASLPGVVPGKYDRPNGCLLNPRCPYATDRCRAEEPALNMLADGRQSKCHYPLDDAGRPTEGHHHHHH”, the “soluble on expression in E. coli” value is on record as “soluble”.

Turning to “MGSDKIHHHHHHMTDKLLKQHKRLLEQQHKLPYTINLSGEVFTIIIYTKLSKVAGVTVLNSQEEPATVKEAEAVVNRIQKYNFYFEYLGKRAHVIKERDSIIAEKIEQTQLILNDNTIFGEKMQPTIDELNLAMEVYKQQQRKMDVYQEDITLLNQKIKMQGEILEEDWESAENLSIAFAKAAYAQSIYLEATRKNRKQLAKWFHLHQKELPTDKQKALSKMVSVLSDTNAGLVFDQIISLRPLLEEGLMLDHEQSLTQRAAEFNKEFETHCRFYKPNINKVKNLIRQ”, the “soluble on expression in E. coli” value is recorded as “not soluble”.

For “MEASDLTFTVSVDQTTKHVFDAICNVRGWWSEEIEGNTDKRNETFIYQYEDVHYAKIKVQELIPNEKVVWLVTYNYFKFTKDKSEWTGTTIRFDISAKGDKTEIRFTHYGLNPEFECYDICSNAWGQYIGQSLPDLIKSGKGNPNGKNKPTTADEERFSAKNLEHHHHHH”, the “soluble on expression in E. coli” value is recorded as “soluble”.

With “MGSDKIHHHHHHMAEQMRRVARLFGDWPETIIWTCLEGTMGDIYVDDSQSPQSALALYGRQSFFGFLAGQPHRDLLKICEGKNIILVPQNQAWSDLIEEVYGDGVRFFTRYATKKDTEFDLGHLQKLVDDLPESFDMKLIDRNLYETCLVEEWSRDLVGNYIDVEQFLDLGLGCVILHKGQVVSGASSYASYSAGIEIEVDTREDYRGLGLAKACAAQLILACLDRGLYPSWDAHTLTSLKLAEKLGYELDKAYQAYEWR”, the “soluble on expression in E. coli” value is reported as “not soluble”.

In the case of “MKGKNNMSRIIVVTSGKGGVGKTTSSAAIASGLALRGKKTAVIDFDIGLRNLDLIMGCERRVVYDFVNVINGEATLNQALIKDKRNENLFILPASQTRDKDALTKDGVQRVLNDLKEMGFDFIICDSPAGIEQGALMALYYADEAIVTTNPEVSSVRDSDRILGILDSKSMRAEQGQAPIKQHLLLTRYNPARVTQGEMLSVQDVEEILHVPLLGVIPESQAVLNASNKGVPVIFDDQSDAGQAYQDTVARLLGEQVEFRFLTEAKKGIFKRLFGG”, the “soluble on expression in E. coli” value was “not soluble”.

For “QMNTVFIKNEGVTEGEIATIGEHTAEISGVSTGTDWTRDYSQSGALRSLLGTVSTEKQGLPAEEVDEYLKKGYARNDRVGTSYLEKQYEDVLQGKKAKSEVVLDNNGKIVSQTPISKGEKGSNLKLTID”, the “soluble on expression in E. coli” value is listed as “not soluble”.

Take “MGHHHHHHSHMAKQPTVLWAQRESLVYLTIEVDEAKIEELKGEGNKLHFQGSSKTDKYEATLEFFDEIDPASVKHTGSSTRVVEITVQKKTPAWWPRLLQNKGKVHWLKVDFGKWKDEDEDDEAEDAGAGIGGGMANGFDLNQYMSQMGGAGGADFGGLEDDEEDDDMPDLEDNEEEEGKNGTRA”: the “soluble on expression in E. coli” value is reported as “soluble”.

As to “GSMALPKDAIPSLSECQCGICMEILVEPVTLPCNHTLCKPCFQSTVEKASLCCPFCRRRVSSWTRYHTRRNSLVNVELWTIIQKHYPRECKLRASGQESEEVADDYQPVRLLSKP”, the “soluble on expression in E. coli” value was “soluble”.

For the sequence “MSLGNPHMPLLLALSKGFVEPVYRAAFLASAASSGVLAALAVRPCDLESLAERLDIDDEDLPRLKEWLDMGIRLGDLGKREGCYKLRSLPAKALAQPGNDAIAAALEEVLRFHVPALLNGPRMLREGRRFSLDDQDGLVIARSTRVIQPLVEEAIARTLDRNAPVRLLEVGCGSGTYVRYAAELNPRLSALAVDLQQDVADSAAANMAEWGLTDRVETRQADLRTLDAQPQFDLVTLHNNIYYFPEAERVEALRRAHDLLAPGGRLLLTTSCKGGNVGLEALNLWFTYADFGGPLPQADALADQLRQAGFDDVEATRIVPGEQFHAFTGTSKRVAHAEGHHHHHH”, the “soluble on expression in E. coli” value was “not soluble”.

Turning to “MRDLKGIFSALLVSFNEDGTINEKGLRQIIRHNIDKMKVDGLYVGGSTGENFMLSTEEKKEIFRIAKDEAKDQIALIAQVGSVNLKEAVELGKYATELGYDCLSAVTPFYYKFSFPEIKHYYDTIIAETGSNMIVYSIPFLTGVNMGIEQFGELYKNPKVLGVKFTAGDFYLLERLKKAYPNHLIWAGFDEMMLPAASLGVDGAIGSTFNVNGVRARQIFELTKAGKLKEALEIQHVTNDLIEGILANGLYLTIKELLKLEGVDAGYCREPMTSKATAEQVAKAKDLKAKFLS”, the “soluble on expression in E. coli” value is recorded as “soluble”.

On to “METSPVFIDYVTIRQEYFGGGLPVLNDGKVLKVDADGEIEYSTDVRCIIEGSYDSRVQVRCDGNTVEFTGNISRYGRRDNLFGYDWPTTIARINDLLSLLGLPPFTSGKLYKFADTGWSWSGARVSRIDLTCNYSTGSKESMHAVLCHMAGQHVGRQKGSLSPDSGTVEYGRGSKYVYGKLYAKYQELEKHRSKKSGSHVSDDVIDYCKTEGILREEFTLKSRFLLQNNLAYLGAITQDNLNQILEHHHHHH”, for which the “soluble on expression in E. coli” value is reported as “not soluble”.
